Experimental findings from patent publication US20250002588A1 (DIAGONAL THERAPEUTICS, published 2025) are described below.

B1: DGL904 (bispecific antibody)
chain 1: not shown
chain 2: EVQLLESGGGLVQPGGSLRLSCAASGFTFSDYWMTWIRQAPGKGLEWVSSISGGTTYYADSRKGRFTISRDNSENTLYLQMNSLRAEDTAVYYCARDFGVSGWFGQYGMDVWGQGTLVTVSSGGGGSGGGGSGGGGSQSVLTQPPSASGTPGQRVTISCTGSSSNIGAGYDVHWYQQLPGTAPKLLIYRSNQRPSGVPDRFSGSKSGTSASLAISGLRSEDEADYYCSSYAGNYNLVFGGGTKLTVLDKTHTCPPCPAPEAAGAPSVFLFPPKPKDTLMISRTPEVTCVVVDVSHEDPEVKFNWYVDGVEVHNAKTKPREEQYNSTYRVVSVLTVLHQDWLNGKEYKCKVSNKALPAPIEKTISKAKGQPREPQVCTLPPSRDELTKNQVSLSCAVKGFYPSDIAVEWESNGQPENNYKTTPPVLDSDGSFFLVSKLTVDKSRWQQGNVFSCSVMHEALHNHYTQKSLSLSPGWSHPQFEK
B2: DGL908 (bispecific antibody)
chain 1: not shown
chain 2: EVQLLESGGGLVQPGGSLRLSCAASGFTFSDYYMTWIRQAPGKGLEWVSSISGGSTYYADSRKGRFTISRDNSENTLYLQMNSLRAEDTAVYYCARDFGVSGWFGQYGMDVWGQGTLVTVSSGGGGSGGGGSGGGGSQSVLTQPPSASGTPGQRVTISCTGSSSNIGAGYDVHWYQQLPGTAPKLLIYRSNQRPSGVPDRFSGSKSGTSASLAISGLRSEDEADYYCSSYAGNYNLVFGGGTKLTVLDKTHTCPPCPAPEAAGAPSVFLFPPKPKDTLMISRTPEVTCVVVDVSHEDPEVKFNWYVDGVEVHNAKTKPREEQYNSTYRVVSVLTVLHQDWLNGKEYKCKVSNKALPAPIEKTISKAKGQPREPQVCTLPPSRDELTKNQVSLSCAVKGFYPSDIAVEWESNGQPENNYKTTPPVLDSDGSFFLVSKLTVDKSRWQQGNVFSCSVMHEALHNHYTQKSLSLSPGWSHPQFEK
B3: DGL911 (bispecific antibody)
chain 1: not shown
chain 2: EVQLLESGGGLVQPGGSLRLSCAASGFTFSDYWMTWIRQAPGKGLEWVSSISGGTTYYADSRKGRFTISRDNSENTLYLQMNSLRAEDTAVYYCARDFGVSGWFGQYGMDVWGQGTLVTVSSGGGGSGGGGSGGGGSQSVLTQPPSASGTPGQRVTISCTGSSSNIGAGYDVHWYQQLPGTAPKLLIYRSNQRPSGVPDRFSGSKSGTSASLAISGLRSEDEADYYCSSYAGNYNLVFGGGTKLTVLDKTHTCPPCPAPEAAGAPSVFLFPPKPKDTLMISRTPEVTCVVVDVSHEDPEVKFNWYVDGVEVHNAKTKPREEQYNSTYRVVSVLTVLHQDWLNGKEYKCKVSNKALPAPIEKTISKAKGQPREPQVCTLPPSRDELTKNQVSLSCAVKGFYPSDIAVEWESNGQPENNYKTTPPVLDSDGSFFLVSKLTVDKSRWQQGNVFSCSVMHEALHNHYTQKSLSLSPGWSHPQFEK
B4: DGL909 (bispecific antibody)
chain 1: not shown
chain 2: EVQLLESGGGLVQPGGSLRLSCAASGFTFSDYWMTWIRQAPGKGLEWVSSISGGSTYYADSRKGRFTISRDNSENTLYLQMNSLRAEDTAVYYCARDFGVAGWFGQYGMDVWGQGTLVTVSSGGGGSGGGGSGGGGSQSVLTQPPSASGTPGQRVTISCTGSSSNIGAGYDVHWYQQLPGTAPKLLIYRSNQRPSGVPDRFSGSKSGTSASLAISGLRSEDEADYYCSSYAGNYNLVFGGGTKLTVLDKTHTCPPCPAPEAAGAPSVFLFPPKPKDTLMISRTPEVTCVVVDVSHEDPEVKFNWYVDGVEVHNAKTKPREEQYNSTYRVVSVLTVLHQDWLNGKEYKCKVSNKALPAPIEKTISKAKGQPREPQVCTLPPSRDELTKNQVSLSCAVKGFYPSDIAVEWESNGQPENNYKTTPPVLDSDGSFFLVSKLTVDKSRWQQGNVFSCSVMHEALHNHYTQKSLSLSPGWSHPQFEK
B5: DGL910 (bispecific antibody)
chain 1: not shown
chain 2: EVQLLESGGGLVQPGGSLRLSCAASGFTFSDYYMTWIRQAPGKGLEWVSSISGGTTYYADSRKGRFTISRDNSENTLYLQMNSLRAEDTAVYYCARDFGVAGWFGQYGMDVWGQGTLVTVSSGGGGSGGGGSGGGGSQSVLTQPPSASGTPGQRVTISCTGSSSNIGAGYDVHWYQQLPGTAPKLLIYRSNQRPSGVPDRFSGSKSGTSASLAISGLRSEDEADYYCSSYAGNYNLVFGGGTKLTVLDKTHTCPPCPAPEAAGAPSVFLFPPKPKDTLMISRTPEVTCVVVDVSHEDPEVKFNWYVDGVEVHNAKTKPREEQYNSTYRVVSVLTVLHQDWLNGKEYKCKVSNKALPAPIEKTISKAKGQPREPQVCTLPPSRDELTKNQVSLSCAVKGFYPSDIAVEWESNGQPENNYKTTPPVLDSDGSFFLVSKLTVDKSRWQQGNVFSCSVMHEALHNHYTQKSLSLSPGWSHPQFEK
B6: DGL907 (bispecific antibody)
chain 1: not shown
chain 2: EVQLLESGGGLVQPGGSLRLSCAASGFTFSDYYMNWIRQAPGKGLEWVSSISGGSTYYADSVKGRFTISRDNSENTLYLQMNSLRAEDTAVYYCARDFGVAGWFGYYGMDVWGQGTLVTVSSGGGGSGGGGSGGGGSQSVLTQPPSASGTPGQRVTISCTGSSSNIGAGYDVHWYQQLPGTAPKLLIYRSNQRPSGVPDRFSGSKSGTSASLAISGLRSEDEADYYCSSYAGNYNLVFGGGTKLTVLDKTHTCPPCPAPEAAGAPSVFLFPPKPKDTLMISRTPEVTCVVVDVSHEDPEVKFNWYVDGVEVHNAKTKPREEQYNSTYRVVSVLTVLHQDWLNGKEYKCKVSNKALPAPIEKTISKAKGQPREPQVCTLPPSRDELTKNQVSLSCAVKGFYPSDIAVEWESNGQPENNYKTTPPVLDSDGSFFLVSKLTVDKSRWQQGNVFSCSVMHEALHNHYTQKSLSLSPGWSHPQFEK
B7: DGL906 (bispecific antibody)
chain 1: not shown
chain 2: EVQLLESGGGLVQPGGSLRLSCAASGFTFSDSYMSWIRQAPGKGLEWVSSISGGSTYYADSVKGRFTISRDNSENTLYLQMNSLRAEDTAVYYCARDFGVAGYFGQYGMDVWGQGTLVTVSSGGGGSGGGGSGGGGSQSVLTQPPSASGTPGQRVTISCTGSSSNIGAGYDVHWYQQLPGTAPKLLIYRSNQRPSGVPDRFSGSKSGTSASLAISGLRSEDEADYYCSSYAGNYNLVFGGGTKLTVLDKTHTCPPCPAPEAAGAPSVFLFPPKPKDTLMISRTPEVTCVVVDVSHEDPEVKFNWYVDGVEVHNAKTKPREEQYNSTYRVVSVLTVLHQDWLNGKEYKCKVSNKALPAPIEKTISKAKGQPREPQVCTLPPSRDELTKNQVSLSCAVKGFYPSDIAVEWESNGQPENNYKTTPPVLDSDGSFFLVSKLTVDKSRWQQGNVFSCSVMHEALHNHYTQKSLSLSPGWSHPQFEK
B8: DGL905 (bispecific antibody)
chain 1: not shown
chain 2: EVQLLESGGGLVQPGGSLRLSCAASGFTFSDYYMNWIRQAPGKGLEWVSSISGGSTYYADSVKGRFTISRDNSENTLYLQMNSLRAEDTAVYYCARDFGVAGWFGQFGMDVWGQGTLVTVSSGGGGSGGGGSGGGGSQSVLTQPPSASGTPGQRVTISCTGSSSNIGAGYDVHWYQQLPGTAPKLLIYRSNQRPSGVPDRFSGSKSGTSASLAISGLRSEDEADYYCSSYAGNYNLVFGGGTKLTVLDKTHTCPPCPAPEAAGAPSVFLFPPKPKDTLMISRTPEVTCVVVDVSHEDPEVKFNWYVDGVEVHNAKTKPREEQYNSTYRVVSVLTVLHQDWLNGKEYKCKVSNKALPAPIEKTISKAKGQPREPQVCTLPPSRDELTKNQVSLSCAVKGFYPSDIAVEWESNGQPENNYKTTPPVLDSDGSFFLVSKLTVDKSRWQQGNVFSCSVMHEALHNHYTQKSLSLSPGWSHPQFEK

For the test, the target named is ALK-1/BMPR-2 receptor pair of the PathHunter U2Os dimerization cells (DiscoverX 93-0962C3) (UniProt P37023 22-503; Q13873 27-1038). Briefly: cell-based or functional assay.
Chain of ALK-1/BMPR-2 receptor pair of the PathHunter U2Os dimerization cells (DiscoverX 93-0962C3) (P37023 22-503, one chain of several): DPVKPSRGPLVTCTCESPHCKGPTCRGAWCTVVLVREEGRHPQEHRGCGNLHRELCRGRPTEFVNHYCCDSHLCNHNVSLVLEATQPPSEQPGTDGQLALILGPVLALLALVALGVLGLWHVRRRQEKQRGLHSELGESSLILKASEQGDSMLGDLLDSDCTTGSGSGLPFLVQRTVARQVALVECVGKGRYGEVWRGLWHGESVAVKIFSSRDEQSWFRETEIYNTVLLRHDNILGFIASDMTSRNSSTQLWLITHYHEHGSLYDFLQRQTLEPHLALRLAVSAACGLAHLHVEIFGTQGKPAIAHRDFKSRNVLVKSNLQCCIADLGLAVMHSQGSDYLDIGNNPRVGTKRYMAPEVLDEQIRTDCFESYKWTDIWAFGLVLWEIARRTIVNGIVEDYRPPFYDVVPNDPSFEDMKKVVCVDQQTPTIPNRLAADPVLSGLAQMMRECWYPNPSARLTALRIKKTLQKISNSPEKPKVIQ
B1: the “% Emax BMP9” value was 17% and the “Emax (RLU)” value is 475000 RLU.
On to B2, for which the “% Emax BMP9” value came to 45% and the “Emax (RLU)” value was found to be 1.23e+06 RLU.
Consider B3, for which the “% Emax BMP9” value was 19% and the “Emax (RLU)” value came out at 521000 RLU.
The corresponding values for B4 are 24% and 663000 RLU.
With B5, the “% Emax BMP9” value is 49% and the “Emax (RLU)” value came to 1.33e+06 RLU.
With B6, the “% Emax BMP9” value was determined as 12% and the “Emax (RLU)” value was found to be 321000 RLU.
For the molecule B7, the “% Emax BMP9” value was -2% and the “Emax (RLU)” value is -41100 RLU.
For B8, in that order: 36% and 972000 RLU.
